Assay results reported in article PMC6433461.

Molecular target: ParB2^S68C-AlexaFluor488 (B. subtilis) (UniProt P26497)

percentage of single DNA molecules condensed by 250 nM ParB^AF alone at permissive forces, Mg2+ buffer, combined lateral MT-TIRF: 83%
B1: ParB2^S68C-AlexaFluor488 (natural protein)
chain: MAKGLGKGINALFNQVDLSEETVEEIKIADLRPNPYQPRKHFDDEALAELKESVLQHGILQPLIVRKCLKGYDIVAGERRFRAAKLAGLDTVPAIVRELSEALMREIALLENLQREDLSPLEEAQAYDSLLKHLDLTQEQLAKRLGKSRPHIANHLRLLTLPENIQQLIAEGTLSMGHGRTLLGLKNKNKLEPLVQKVIAEQLNVRQLEQLIQQLNQNVPRETKKKEPVKDAVLKERESYLQNYFGTTVNIKRQKKKGKIEIEFFSNEDLDRILELLSERES
modifications: Alexa Fluor 488 C5 maleimide coupled to the cysteine of S68C; approximate efficiency of 2 dyes per ParB monomer as printed
